For this assay, the target named is Fc receptor on THP-1 cells. The assay can be described thus: cell-based or functional assay.

Among the data in patent publication US20080075733A1 are TNF-α secretion from THP-1 cells on coated wells (10 µg/well, heat aggregated) values, retold here.

Some results are limits rather than exact numbers.

As for “human IgG1 (heat aggregated, coated on wells) (antibody)”, the TNF-α secretion from THP-1 cells on coated wells (10 µg/well, heat aggregated) was greater than 40 ng/well.
